The text below walks through data of the nanobody polyreactivity screen of Harvey et al. (2022).

A short description of this data set: yeast display, Sf9 membrane polyspecificity reagent, FACS + sequencing; frameworks hold sequencing errors. The essentials:
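Sorting gates, low and high (top ~1%), were placed on anti-HA fluorescence to track expression and on streptavidin fluorescence to track reagent binding. A clone's polyreactivity label is taken from the gate it came out of. The reagent was 10% biotinylated, detergent-solubilized Sf9 membrane, applied for 1 hour at 4 °C to galactose-induced yeast display cells.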
With “QVQLVETGGGLVQAGGSLRLSCAASGFTFGSNAMGWYRQAPGKEREFVAAITYSGGGTYADSVKGRFTISRDNAKHTVDLQMNSLKPEDTAVYYCATDAYRWHYWNFGFGYWGQGTQVTVSS”, the “polyreactivity (PSR sort gate)” value is reported as “high polyreactivity”.
As to “QVQLVETGGGLVQAGGSLRLSCAASGFTFNNYAMGWYRQAPGTERELVAAISWSGGRTYYPDSVMGRFTISSDNAKNTVYLQMNSLNTEDTAVYYCAADFSGSVDYWGQGTQVTVSS”, the “polyreactivity (PSR sort gate)” value is “high polyreactivity”.
The value for “QVQLVETGGGLVQAGGSLRLSCAASGFTFPYNAMGWYRQAPGKERELVAAISSTGGITYYADSVKGRFTISRDNAKNTVYLQMNSLKPEDTAVYYCGWYDYWGQGTQVTVSS” was “low polyreactivity”; that for “QVQLVETGGGLVQAGGSLRLSCAASGGSFTYNALGWDRQSPGKERALVAAITDSGGSTFADSVKGRFTISRDIAKNNVYLQMNSLKPEDTAVYYCAAGDGDTGSMYLRKLSDYWGQGTQVTVSS” was “low polyreactivity”; that for “QVQLVETGGGLVQAGGSLRLSCAASGITFAYNTMGWYIQAPGKERELVAGISFSGASTYYADSVKGRFTISRDYAKNTVYLQMNSLKPEDTAVYDCAAPRWVANQYREYDYWGQGTQVTVSS” was “high polyreactivity”.
In the case of “QVQLVETGGGLVQAGGSLRLSCAASGITFWYYAMGWYIQAPGKERELVAAITSGGSTYYADSVKGRFTISRDNAKNTVYLQMNSLKPEDTAVYYCAKDSVWGAKNLTSYKYYYWGQGTQVTVSS”, the “polyreactivity (PSR sort gate)” value was “low polyreactivity”.
For the sequence “QVQLVETGGGLVQAGGSLRLSCAASGITITVYAMGWYRQAPGKERELVAAINSGSSTNYADSVKGRFTISRDNAKNTVYLQMNSLKTEVTAVYYCDASYRTLPDKKRYCYWGQGTQVTVSS”, the “polyreactivity (PSR sort gate)” value is reported as “high polyreactivity”.
The result for “QVQLVETGGGLVQAGGSLRLSCAASGLTFIEYAMGWYRQAPGKERELVAAISSGGRTYYADSVKGRFTISRDNAKNTVYLQMNSLKPEDTAVYYCNARGYRRWYNYWGQGTQVTVSS” reads “high polyreactivity”; that for “QVQLVETGGGLVQAGGSLRLSCAASGLTFRGYAKGWYIQAPGKERELVARITIGSSTNYADSVKGRFTISRDIAKNTVYLQMNSLKQEDSAVYYCAADKPGQFTPSYNKIYDYWGQGTQVTVSS”, “low polyreactivity”.
Consider “QVQLVETGGGLVQAGGSLRLSCAASGLTFYVYAMGWYRQAPGKERELVAAISSGGRTYYADSVKGRFTISRDNAKNTVYLQMNSLKPEDTAVYYCAAVRHRNYGYWGQGTQVTVSS”, for which the “polyreactivity (PSR sort gate)” value is “high polyreactivity”.
Take “QVQLVETGGGLVQAGGSLRLSCAASGNTFQRYTMGWYRQAPGNERELVAAITWSGGNTYYADSVKGRFTISRDNAKNTVYLQMNSLKPVDTAVYYCNADYPTTAYDYWGQGTQVSVSS”: the “polyreactivity (PSR sort gate)” value is reported as “low polyreactivity”.
Consider “QVQLVETGGGLVQAGGSLRLSCAASGRIFDIYAMGWYRQAPGKERELVAAIDESGGSTYYADSVKGRFTISRDNAKNTVYLQMNSLKPEDTAVYYCATDDTWTISYGWYWFTYEYWGQGTQVTVSS”, for which the “polyreactivity (PSR sort gate)” value was “low polyreactivity”.
“QVQLVETGGGLVQAGGSLRLSCAASGRIFHRNAMGWYRQAPGKEREFVAGITTGSSTYYADSVKGRFTISRDNAKNTVYLQMNSLKPEDTAVYYCAARYFIGSYRPRFDYWGQGTQVTVSS”: the “polyreactivity (PSR sort gate)” value is “high polyreactivity”.
Consider “QVQLVETGGGLVQAGGSLRLSCAASGRIFKVYAMGWYRQAPGKERELDAAITSRGGSTYYADSVKGRFTISRDNAKNTVYLQMNSLKPEDTAVYYCAAARGLPSNKYYYWGQGTQVTVSS”, for which the “polyreactivity (PSR sort gate)” value is given as “high polyreactivity”.
“QVQLVETGGGLVQAGGSLRLSCAASGRIFYYNTMGWYRQAPGKERELVAAISSTASTTYADSVKGRFTISRDNAKNTVYLQMNSLKPEDTAVYYCAADHRYHWAYPRGYYYWGQGTQVTVSS”: the “polyreactivity (PSR sort gate)” value is reported as “high polyreactivity”.
The value for “QVQLVETGGGLVQAGGSLRLSCAASGRTFAYYVMGWYRQAPGKERELVAAISSDGSTYYADSVKGRFTISRDNAKNTVNLQMNSLKPEDTAVYYCKVDVLLVHDYVFYSWMDYWGQGTQVTVSS” was “high polyreactivity”.
Take “QVQLVETGGGLVQAGGSLRLSCAASGRTFWGHAMGWYRQAPRKERELVASISSRGSSTYYADSVKGRFTISRDNAKNTVYLQMNSLKPEDTAVYYCAARTHYFPWPWYVWDYDSWGQGTQVTVSS”: the “polyreactivity (PSR sort gate)” value was “low polyreactivity”.
For “QVQLVETGGGLVQAGGSLRLSCAASGSIFVRKAMGWYRQAPGKERELVATISYRGASTYYADSVKGRFTISRDNAKNTVYLQLNCLKPEDTAVYYCNAPRFVGLNVYGYDYWGQGTQVTLSS”, the “polyreactivity (PSR sort gate)” value is “high polyreactivity”.
As for “QVQLVETGGGLVQAGGSLRLSCAASGSIFVYHAMGGYRQAPGKETEFVAVISNSGSRTYYADSVKGRFTISRDNAKNTVYLQMNSLKPEDTAVYYCAARYYYFQRAYDYWGQGTQVTVSS”, the “polyreactivity (PSR sort gate)” value was “high polyreactivity”.
As to “QVQLVETGGGLVQAGGSLRLSCAASGSIFYYNTMGWYRQAPGKERELVAAISRSGTSTFYADSVKGRFTISRHNAKNTVYLQMNSLKPEDTAVYYCNAESLGWYRLYTVDYWGQGTQVTVSS”, the “polyreactivity (PSR sort gate)” value is given as “low polyreactivity”.
For “QVQLVETGGGLVQAGGSLRLSCAASGSTFGYNGMGWYRQAPGKERELVAAISGGARTYADSVKGRFTISRDNAKNTVYLQMNSLIPEDTAVYYCAADSPVSVTADDGYWGLGTQVTVSS”, the “polyreactivity (PSR sort gate)” value is reported as “low polyreactivity”.
As to “QVQLVETGGGLVQAGGSLRLSCAASGSTFVWYDMGRYRQAPGKERELVATITSGGITTYADSVKGRFTISRDNAKNTVYLKMNSLKPEDTAVYYCNADLYYWLRYYDRNDYLGQGTQVTVSS”, the “polyreactivity (PSR sort gate)” value is given as “low polyreactivity”.
With “QVQLVETGGGLVQAGGSLRLSCAASGSTFYDNAMGWYRQAPGKERELVAAITRSGTRTYYADSVKGRFTISRDNAKNTVYLQMNSLKPEDTAVYYCNVVLYSYVTYRIITHGTYGYWGQGTQVTVSS”, the “polyreactivity (PSR sort gate)” value is “high polyreactivity”.
For the sequence “QVQLVETGGGLVQAGGSLRLSCAASGTIFTNYTMGWYRQAPGKERELVASISWSGGRTYYADSVKGRFTISRDNAKNTVYLQMNSLKPEDTAVYYCAAVSRAPGLRYDYWGQGTQVTVSS”, the “polyreactivity (PSR sort gate)” value is “high polyreactivity”.
Consider “QVQLVETGGGLVQAGGSLRLSCAASGYTLPANGKGWYRQAPGKDRELVAAISFIAGSTYYADSVNGRFTISRDNAKNTVYLQMNSLKPEDTAGYYCATQFPRSTIYDYWGQGTQVTVSS”, for which the “polyreactivity (PSR sort gate)” value is reported as “low polyreactivity”.
For the sequence “QVQLVETGGGLVQAGGSLRLSCAASVRTFHGYAMGWYRQAPGKERELVAAITCTGGRTYYADSVKGRFTISRDNAKNTVYLQMNSLKPEDTAVYYCGARPWIKSGYCGQGTQVTVSS”, the “polyreactivity (PSR sort gate)” value is “high polyreactivity”.
Regarding “QVQLVETGGGLVQAGGSLRLSCASSGFTLRVNDMGWYRQAPGKERELVAGITVSGGSTYYADSVKVRFTISRDNAKNTVYLQMNSLKPEDTAVYYCNADNYENATVMDYWGQGTQVTVSS”, the “polyreactivity (PSR sort gate)” value is “low polyreactivity”.
As to “QVQLVETGGGLVQAGGSLRLSCDASGRIIRWYALGWYRQAPGKERELDAAITRSGSTFYADSVKWRFTISRDNAKNTVYLQMNSLKREDTADYYCNTCRWLYDTRYQFDEFDYWGQGTQVTVSS”, the “polyreactivity (PSR sort gate)” value is reported as “high polyreactivity”.
In the case of “QVQLVETGGGLVQAGGSLRLSSAASGITSNSYAMGWYRQAPGKERELVATITSGGSTNYADSVKGRFTITLDNAKNSVYLQMNSLKPEDTAVYYCNREYWLPTQYDYWGQGTQVTVSS”, the “polyreactivity (PSR sort gate)” value is recorded as “low polyreactivity”.
Take “QVQLVETGGGLVQAGGSLRLSSAASGSILEGYAMGWYRQAPGKERELVPAISRSGGSTYYADSVKGRFTISRDNAKNTVYLQMKSLKPEDTAVYYCAARYRLDGTHLTGYAYYSWGQGTQGTVSS”: the “polyreactivity (PSR sort gate)” value is recorded as “high polyreactivity”.
For “QVQLVETGGGLVQAGGSLSLSCAASGRTCRFYAMGWYRQAPGKERELVGAISWNGGRTYYADSVKGRFTISRDNAKNSVYLQMNSLKPEDTAVYFCNARAYGSRKFEYWGQGTQVTVSS”, the “polyreactivity (PSR sort gate)” value is on record as “high polyreactivity”.
Turning to “QVQLVETGGGLVQAGGSRRVSCAASGFIFWWYPMGWYRQSPGKERELVAAISGRGGSTYYADSVKRRFTISRDNAKNTVYLQMNSQKPEDTAVYYCAARLPWSYYRTQGYNYGGQGTQVTVSS”, the “polyreactivity (PSR sort gate)” value is “high polyreactivity”.
For “QVQLVETGGGLVQAGVSLRLSSAASGLTYTQYALGWYRQAPGKERELVAAITSGGRRYYADSVKGRFTISRDNAKNTVYLQMNSLKPEDTAVYYCAVRGWCSARGMDYWGQGTQVTVSS”, the “polyreactivity (PSR sort gate)” value is reported as “high polyreactivity”.
For “QVQLVETGGGLVQARGSLRLSCAASGRIFRRYAMGWYRQAPGKERELVAAISSGGSTDYADSVKGRFTISRDNAKNTVYLQMNSLKPEDTAVYYCARRGPYYNVGLFDSWGQGTQVTVSS”, the “polyreactivity (PSR sort gate)” value is “low polyreactivity”.
“QVQLVETGGGLVQARGSLRLSCAASVRIFYYNAMGWYRQSPGKERELVAAITRSGSTNYAESVKGRFTISRDNAKNTVYLKMNSLKPEDTAVYYCAADSLKRYDYWGQGTQVTVSS”: the “polyreactivity (PSR sort gate)” value is recorded as “low polyreactivity”.
“QVQLVETGGGLVQARGSLRLSSAASGIIFYRYAMGWYRQAPGKETDFVAAISWSGGSTTYADSVKGRFTISRDNAKNTVYLQMNSLKPVDTAVYYCNAERKYWSLWGPAYDYWGQGTQVTVSS”: the “polyreactivity (PSR sort gate)” value is on record as “high polyreactivity”.
In the case of “QVQLVETGGRIVQAGGSLRLSCAASGRIMDTNAMGWYRQAPGKEREFVAAITWIDGSTYYADSVKGRFTISRDNATNTVYLQMNSLKPEDTAVYYWNVQYTVDRYPSPPYSETGDYWGQGTQVTVSS”, the “polyreactivity (PSR sort gate)” value was “low polyreactivity”.
As for “QVQLVETRGGLLQAGGSLRLSCDASGRTFAYYAMGRYRQAPGKESELVAAITYSDGSTYYADSVKGRFTISRDNAKNTFYLQMNSLKPEDPSVYYCAKGLSREEPENDYDYWGQGTQVTVSS”, the “polyreactivity (PSR sort gate)” value was “low polyreactivity”.
The result for “QVQLVETVGGLVQAGGSLRLSCAASGIIFKRYPLGGYRQAPGKERELVAAITNRGGTYYADSVKGRFTISRDNEKNSVYLQMYSLKPEDTAVYYFAARYYWIDFKFGGPRDYWGQGTQVTVSS” reads “high polyreactivity”; that for “QVQLVEYGGGLVQAGGSLRLSCAASGIIFKVYAMGWYRQAPGKEMELVAAISWSGGTTYYADSVKWRFTISRDNAKNTVYLQMNSLKPEDTAVYYCNAVVRVRFRKNDYWGQGTQVTVSS”, “high polyreactivity”.
